What was measured:
[1] = biological target: T1, human TFPI alpha (full-length TFPIα) (human, UniProt P10646 29-304); experiment: cell-based or functional assay
[2] = biological target: T2, endogenous TFPI of human plasma (human, UniProt P10646 29-304, limits assumed); experiment: cell-based or functional assay
[3] = biological target: T1, human TFPI alpha (full-length TFPIα); experiment: cell-based or functional assay; remark: listed apart in the source
[4] = biological target: T2, endogenous TFPI of human plasma; experiment: cell-based or functional assay; remark: listed apart in the source
[5] = biological target: T3, TFPI (1-79) fragment, N-terminal and KPI-1 domain of TFPI with an N-terminally attached GSSGSSG tag (human, UniProt P10646 29-107); experiment: SPR (Biacore T200), bispecific captured by anti-Fab kappa antibody, antigen as analyte, 1:1 Langmuir fit
T3 construct: also called tagged TFPI KPI-1/N-terminal; TFPI KPI-1
Protocol: (§1) Binding studies were performed on a Biacore T200 (GEHealthcare) that measures molecular interactions in real time through surface plasmon resonance. Experiments were run at 25° C. and the samples were stored at 15° C. in the sample compartment. The signal (RU, response units) reported by the Biacore is directly correlated to the mass on the individual sensor chip surfaces in four serial flow cells. Goat anti Fab Kappa Light Chain antibody (Nordic Biosite) was immobilized onto all four flow cells of a CM4 sensor chip according to the manufacturer's instructions. Capture of purified bispecific molecules was conducted by diluting the proteins into running buffer (10 mM Hepes 0.3 M NaCl, 5 mM CaCl₂, 0.05% surfactant P20, 10 mg/ml BSA, pH 7.4) and injected over flowcell 2, 3 or 4, creating a reference surface in flow cell 1 with only anti-Fab antibody immobilized. […] Binding of TFPI FL (SEQ ID NO: 1), TFPI (1-79), and TFPI KPI-2 proteins was conducted by injecting analyte (antigen) over all flow cells to allow for comparative analyses of binding to different captured bispecific molecules relative to binding to the reference surface. The TFPI (1-79) fragment spans the N-terminal and KPI-1 domain of TFPI with an N-terminally attached GSSGSSG tag (SEQ ID NO: 16). The TFPI KPI-2 fragment spans the KPI-2 domain of TFPI with a C-terminal HIS₆ tag (SEQ ID NO: 3). Antigens were diluted serially into running buffer, injected at 30 μl/min for 240 s and allowed to dissociate for 600 s or 14000 s. Prolonging the monitoring of dissociation phase for antigens that dissociates slowly with kd approaching 1E-5 s⁻¹ is crucial to get a robust value for the dissociation rate. The CM4 surface was regenerated after each injection cycle of analyte via injection of 10 mM Glycine, pH 2.1. This regeneration step removed the anti-TFPI bispecific molecule and any bound antigen from the immobilized capture antibody surface, and allowed for the subsequent binding of the next interaction sample pair.

[6] = biological target: TFPI KPI-2 fragment spanning the KPI-2 domain of TFPI with a C-terminal HIS6 tag (human, UniProt P10646 119-178); experiment: as above
Protocol: as §1

[7] = biological target: TFPI (form not stated, Example 5) (UniProt P10646 29-304, limits assumed); experiment: method not stated

| Binder | EC50; thrombin generation, FVIII-neutralised plasma + 10 nM full-length TFPI alpha; single experiment [1] [nM] | EC50 of the thrombin generation response in FVIII-neutralised plasma + 10 nM full-length TFPI alpha [1] [nM] | EC50 (half-maximal response); thrombin generation, FVIII-neutralised plasma, no TFPI added; four-parameter fit, average of 2 experiments [2] [nM] | EC50 of the thrombin generation response in FVIII-neutralised plasma without added TFPI [2] [nM] | Peak (nM); thrombin generation, FVIII-neutralized plasma + 10 nM TFPI alpha; 100.0 nM mAb [3] [nM] | ttPeak (min); thrombin generation, FVIII-neutralized plasma + 10 nM TFPI alpha; 100.0 nM mAb [3] [min] | Peak (nM); thrombin generation, FVIII-neutralized plasma, no TFPI added; 10.0 nM mAb [4] [nM] | ttPeak (min); thrombin generation, FVIII-neutralized plasma, no TFPI added; 10.0 nM mAb [4] [min] | Kd [5] [nM] | koff [5] [s⁻¹] | kon [5] [M⁻¹ s⁻¹] | Kd [6] [nM] | koff [6] [s⁻¹] | kon [6] [M⁻¹ s⁻¹] | fold lower TFPI binding affinity than mAb 2021 [7] [fold] |
| --- | --- | --- | --- | --- | --- | --- | --- | --- | --- | --- | --- | --- | --- | --- | --- |
| BiFab 9041 (bispecific antibody, C-terminal cysteine linked through the bis-maleimide linker to the C-terminal cysteine of the other Fab's heavy chain; C-terminal cysteine linked through 1,16-bis(2,5-pyrroledione-1-yl)-4,13-diaza-7,10-dioxa-3,14-dioxohexadecane to the C-terminal cysteine of the other Fab's heavy chain, also called Fab 0088 conjugated to Fab 0295) heavy 1: EVQLVESGGGLVKPGGSLRLSCAASGFTFSNYAMSWVRQTPEKRLEWVATISRSGSYSYFPDSVQGRFTISRDNAKNSLYLQMNSLRAEDTAVYYCARLGGYDEGDAMDSWGQGTTVTVSSASTKGPSVFPLAPCSRSTSESTAALGCLVKDYFPEPVTVSWNSGALTSGVHTFPAVLQSSGLYSLSSVVTVPSSSLGTKTYTCNVDHKPSNTKVDKRVESKYGPPC light 1: DIVMTQTPLSLSVTPGQPASISCKSSQSLLESDGKTYLNWYLQKPGQSPQLLIYLVSILDSGVPDRFSGSGSGTDFTLKISRVEAEDVGVYYCLQATHFPQTFGGGTKVEIKRTVAAPSVFIFPPSDEQLKSGTASVVCLLNNFYPREAKVQWKVDNALQSGNSQESVTEQDSKDSTYSLSSTLTLSKADYEKHKVYACEVTHQGLSSPVTKSFNRGEC heavy 2: QVQLKQSGPGLVQPSQSLSITCTVSGFSLTNYGVHWVRQSPGKGLEWLAVIWRGGSIDYNAAFMSRLSITKDNSKSQVFFKMNSLQADDTAIYYCAKNSHGNYVGYAMDYWGQGTSVTVSSASTKGPSVFPLAPCSRSTSESTAALGCLVKDYFPEPVTVSWNSGALTSGVHTFPAVLQSSGLYSLSSVVTVPSSSLGTKTYTCNVDHKPSNTKVDKRVESKYGPPC light 2: GIVMTQSQKFMSTTVGDRVSITCKASQSVGPAVAWYQQKPGQSPKLLIYSASNRYTGVPDRFTGSGSGADFTLTISNLHSEDLADYFCQQYTSYPTFGGGTKLEIKRTVAAPSVFIFPPSDEQLKSGTASVVCLLNNFYPREAKVQWKVDNALQSGNSQESVTEQDSKDSTYSLSSTLTLSKADYEKHKVYACEVTHQGLSSPVTKSFNRGEC | – | – | – | – | – | – | – | – | 0.9 | 0.0003 | 300000 | 0.01 | 6e-05 | 4e+06 | – |
| mAb 2007 (antibody, V domains shown, Grafted HzTFPI4F36 with a single A60P (Kabat) back mutation in VH) VH: EVQLVESGGGLVKPGGSLRLSCAASGFTFSNYAMSWVRQAPGKGLEWVSTISRSGSYSYYPDSVKGRFTISRDNAKNSLYLQMNSLRAEDTAVYYCARLGGYDEGDAMDSWGQGTTVTVSS VL: DIVMTQTPLSLSVTPGQPASISCKSSQSLLESDGKTYLNWYLQKPGQSPQLLIYLVSILDSGVPDRFSGSGSGTDFTLKISRVEAEDVGVYYCLQATHFPQTFGGGTKVEIKR | – | – | – | – | – | – | – | – | – | – | – | – | – | – | 10 |

Next, values leading:

| EC50; thrombin generation, FVIII-neutralised plasma + 10 nM full-length TFPI alpha; single experiment [1] [nM] | EC50 of the thrombin generation response in FVIII-neutralised plasma + 10 nM full-length TFPI alpha [1] [nM] | EC50 (half-maximal response); thrombin generation, FVIII-neutralised plasma, no TFPI added; four-parameter fit, average of 2 experiments [2] [nM] | EC50 of the thrombin generation response in FVIII-neutralised plasma without added TFPI [2] [nM] | Peak (nM); thrombin generation, FVIII-neutralized plasma + 10 nM TFPI alpha; 100.0 nM mAb [3] [nM] | ttPeak (min); thrombin generation, FVIII-neutralized plasma + 10 nM TFPI alpha; 100.0 nM mAb [3] [min] | Peak (nM); thrombin generation, FVIII-neutralized plasma, no TFPI added; 10.0 nM mAb [4] [nM] | ttPeak (min); thrombin generation, FVIII-neutralized plasma, no TFPI added; 10.0 nM mAb [4] [min] | Kd [5] [nM] | koff [5] [s⁻¹] | kon [5] [M⁻¹ s⁻¹] | Kd [6] [nM] | koff [6] [s⁻¹] | kon [6] [M⁻¹ s⁻¹] | fold lower TFPI binding affinity than mAb 2021 [7] [fold] | Binder |
| --- | --- | --- | --- | --- | --- | --- | --- | --- | --- | --- | --- | --- | --- | --- | --- |
| 9.5 | 9.5 | 1.1 | 1.1 | 177 | 7 | 182 | 6.9 | 0.3 | 0.0001 | 400000 | 0.02 | 8e-05 | 5e+06 | – | mAb 0421 (bispecific antibody, human IgG1, kappa, Full length human IgG1 format, made by controlled Fab-arm exchange; also called asymmetric bispecific antibody derived from mAb 0310 and mAb 0336) heavy 1: not shown light 1: DIVMTQTPLSLSVTPGQPASISCKSSQSLLESDGKTYLNWYLQKPGQSPQLLIYLVSILDSGVPDRFSGSGSGTDFTLKISRVEAEDVGVYYCLQATHFPQTFGGGTKVEIKRTVAAPSVFIFPPSDEQLKSGTASVVCLLNNFYPREAKVQWKVDNALQSGNSQESVTEQDSKDSTYSLSSTLTLSKADYEKHKVYACEVTHQGLSSPVTKSFNRGEC heavy 2: not shown light 2: GIVMTQSQKFMSTTVGDRVSITCKASQSVGPAVAWYQQKPGQSPKLLIYSASNRYTGVPDRFTGSGSGADFTLTISNLHSEDLADYFCQQYTSYPTFGGGTKLEIKRTVAAPSVFIFPPSDEQLKSGTASVVCLLNNFYPREAKVQWKVDNALQSGNSQESVTEQDSKDSTYSLSSTLTLSKADYEKHKVYACEVTHQGLSSPVTKSFNRGEC |
| – | – | – | – | – | – | – | – | – | – | – | – | – | – | ~1000 | mAb 2000 (antibody, IgG4, V domains shown, Human kappa/IgG4 (S241P); also called initial grafted HzTFPI4F36 variant) VH: EVQLVESGGGLVKPGGSLRLSCAASGFTFSNYAMSWVRQAPGKGLEWVSTISRSGSYSYYADSVKGRFTISRDNAKNSLYLQMNSLRAEDTAVYYCARLGGYDEGDAMDSWGQGTTVTVSS VL: DIVMTQTPLSLSVTPGQPASISCKSSQSLLESDGKTYLNWYLQKPGQSPQLLIYLVSILDSGVPDRFSGSGSGTDFTLKISRVEAEDVGVYYCLQATHFPQTFGGGTKVEIKR |
